Results taken from the Immune Epitope Database (IEDB).

Key:
[1] = target: HLA-A*02:03; assay: IEDB peptide-MHC binding, purified MHC/direct/fluorescence; filed as Kd, often an IC50 or EC50 that approximates it; ≥ and ≤ were set here for values at or beyond the usual limits of such assays
[2] = target: HLA-A*01:01; assay: as above; conditions: source organism: Clostridium botulinum
[3] = target: HLA-B*40:01; assay: as above; conditions: source organism: Clostridium botulinum
[4] = target: HLA-B*15:01; assay: as above
[5] = target: HLA-A*69:01; assay: as above; conditions: source organism: Clostridium botulinum
[6] = target: HLA-B*46:01; assay: as above
[7] = target: HLA-A*02:01; assay: as above
[8] = target: HLA-A*02:12; assay: as above
[9] = target: HLA-A*11:01; assay: as above; conditions: source organism: Clostridium botulinum
[10] = target: HLA-B*44:02; assay: as above; conditions: source organism: Clostridium botulinum
[11] = target: HLA-B*18:01; assay: as above
[12] = target: HLA-B*08:02; assay: as above; conditions: source organism: Clostridium botulinum NCTC 2916
[13] = target: HLA-A*24:02; assay: as above; conditions: source organism: Clostridium botulinum
[14] = target: HLA-B*15:09; assay: as above; conditions: source organism: Clostridium botulinum NCTC 2916
[15] = target: HLA-A*02:19; assay: as above
[16] = target: HLA-A*02:06; assay: as above; conditions: source organism: Clostridium botulinum NCTC 2916
[17] = target: HLA-A*03:01; assay: as above
[18] = target: HLA-A*31:01; assay: as above; conditions: source organism: Clostridium botulinum
[19] = target: HLA-B*08:01; assay: as above; conditions: source organism: Clostridium botulinum NCTC 2916
[20] = target: HLA-B*58:01; assay: as above; conditions: source organism: Clostridium botulinum
[21] = target: HLA-B*07:02; assay: as above; conditions: source organism: Clostridium botulinum
[22] = target: HLA-B*27:05; assay: as above; conditions: source organism: Clostridium botulinum
[23] = target: HLA-A*02:11; assay: as above
[24] = target: HLA-A*31:01; assay: IEDB peptide-MHC binding, purified MHC/competitive/fluorescence; ≥ and ≤ were set here for values at or beyond the usual limits of such assays; conditions: source organism: Homo sapiens
[25] = target: HLA-B*39:01; assay: IEDB peptide-MHC binding, purified MHC/direct/fluorescence; filed as Kd, often an IC50 or EC50 that approximates it; ≥ and ≤ were set here for values at or beyond the usual limits of such assays; conditions: source organism: Bacillus anthracis str. A0488
[26] = target: HLA-A*02:16; assay: as above; conditions: source organism: Bacillus anthracis str. A0488
[27] = target: HLA-B*27:03; assay: as above; conditions: source organism: Bacillus anthracis str. A0488
[28] = target: HLA-A*23:01; assay: as above; conditions: source organism: Bacillus anthracis str. A0488
[29] = target: HLA-A*68:02; assay: as above; conditions: source organism: Bacillus anthracis str. A0488
[30] = target: HLA-B*57:01; assay: as above; conditions: source organism: Bacillus anthracis str. A0488
[31] = target: HLA-A*26:01; assay: as above; conditions: source organism: Bacillus anthracis str. A0488
[32] = target: HLA-B*15:17; assay: as above; conditions: source organism: Bacillus anthracis str. A0488
[33] = target: HLA-B*53:01; assay: IEDB peptide-MHC binding, purified MHC/competitive/fluorescence; filed as Kd, often an IC50 or EC50 that approximates it; ≥ and ≤ were set here for values at or beyond the usual limits of such assays; conditions: source organism: Bacillus anthracis str. A0488
[34] = target: HLA-A*66:01; assay: as above; conditions: source organism: Bacillus anthracis str. A0488
[35] = target: HLA-A*01:01; assay: as above; conditions: source organism: Bacillus anthracis str. A0488
[36] = target: HLA-B*40:01; assay: as above; conditions: source organism: Bacillus anthracis str. A0488
[37] = target: HLA-A*30:02; assay: as above; conditions: source organism: Bacillus anthracis str. A0488
[38] = target: HLA-A*30:01; assay: as above; conditions: source organism: Bacillus anthracis str. A0488
[39] = target: HLA-A*11:01; assay: as above; conditions: source organism: Bacillus anthracis str. A0488
[40] = target: HLA-B*51:01; assay: as above; conditions: source organism: Bacillus anthracis str. A0488
[41] = target: HLA-B*44:02; assay: as above; conditions: source organism: Bacillus anthracis str. A0488
[42] = target: HLA-B*08:01; assay: as above; conditions: source organism: Bacillus anthracis str. A0488
[43] = target: HLA-B*14:02; assay: as above; conditions: source organism: Bacillus anthracis str. A0488
[44] = target: HLA-B*58:01; assay: as above; conditions: source organism: Bacillus anthracis str. A0488
[45] = target: HLA-B*07:02; assay: as above; conditions: source organism: Bacillus anthracis str. A0488
[46] = target: HLA-B*27:05; assay: as above; conditions: source organism: Bacillus anthracis str. A0488
[47] = source organism: Clostridium botulinum NCTC 2916
[48] = source organism: Clostridium botulinum
[49] = source organism: Bacillus anthracis str. A0488

RVYINVVVK
0.697 µM: Kd [8, 47]
0.484 µM: Kd [9]
0.982 µM: Kd [7, 48]
2.15 µM: Kd [15, 47]
0.603 µM: Kd [23, 47]
0.231 µM: Kd [18]
≥ 20 µM: Kd [2] | Kd [3] | Kd [4, 48] | Kd [5] | Kd [6, 48] | Kd [10] | Kd [11, 48] | Kd [12] | Kd [13] | Kd [14] | Kd [19] | Kd [20] | Kd [21] | Kd [22]
0.599 µM: Kd [1, 47]
0.263 µM: Kd [16]
0.241 µM: Kd [17, 48]

VTMGTGTFGR
0.357 µM: IC50 [24]

WDAYIPHYV
≥ 20 µM: Kd [1, 49] | Kd [4, 49] | Kd [6, 49] | Kd [25] | Kd [26] | Kd [7, 49] | Kd [27] | Kd [28] | Kd [8, 49] | Kd [11, 49] | Kd [15, 49] | Kd [30] | Kd [17, 49] | Kd [31] | Kd [32] | Kd [23, 49]
≤ 0.001 µM: Kd [29]
≥ 5 µM: Kd [33] | Kd [34] | Kd [35] | Kd [36] | Kd [37] | Kd [38] | Kd [39] | Kd [41] | Kd [42] | Kd [43] | Kd [44] | Kd [45] | Kd [46]
0.535 µM: Kd [40]
